Assay [1] has as its target recombinant wild-type cardiac troponin C (chicken) (UniProt P09860). Kind of assay: native gel or EMSA. (In general: A gel shift assay detects complexes by their altered migration in electrophoresis.)
Assay [2] deals with recombinant wild-type cardiac troponin T (rat) (UniProt P50753). Kind of assay: native gel or EMSA.

For “cTnI(131C), cardiac troponin I single-cysteine mutant C81I/C98S/Q131C labeled with AEDANS (from UniProt P48787 1-211) (natural protein)”, the stoichiometry N in assay [1] and in assay [2] was 1 in each case.

For “cTnI(151C), cardiac troponin I single-cysteine mutant C81I/C98S/S151C labeled with AEDANS (from UniProt P48787 1-211) (natural protein)”, the stoichiometry N in assay [1] and in assay [2] was 1 each time.

Turning to “cTnI(160C), cardiac troponin I single-cysteine mutant C81I/C98S/L160C labeled with AEDANS (from UniProt P48787 1-211) (natural protein)”, the stoichiometry N in assay [1] and in assay [2] was 1 throughout.

With “cTnI(167C), cardiac troponin I single-cysteine mutant C81I/C98S/S167C labeled with AEDANS (from UniProt P48787 1-211) (natural protein)”, the stoichiometry N in assay [1] and in assay [2] was 1 each time.

For “cTnI(188C), cardiac troponin I single-cysteine mutant C81I/C98S/E188C labeled with AEDANS (from UniProt P48787 1-211) (natural protein)”, the stoichiometry N in assay [1] and in assay [2] was 1 throughout.

Regarding “cTnI(210C), cardiac troponin I single-cysteine mutant C81I/C98S/E210C labeled with AEDANS (from UniProt P48787 1-211) (natural protein)”, the stoichiometry N in assay [1] and in assay [2] was 1 throughout.

These data come from paper PMC2599808.
